Publication PMC6367419 (Nature Communications, 2019)

B2: EscN^29–446 (EPEC type III secretion system ATPase EscN, residues 29–446) (enzyme)
chain: NSSTRYEGKIINIGGTIIKARLPKARIGAFYKIEPSQRLAEVIAIDEDEVFLLPFEHVSGMYCGQWLSYQGDEFKIRVGDALLGRLIDGIGRPMESNIVAPYLPFERSLYAEPPDPLLRQVIDQPFILGVRAIDGLLTCGIGQRIGIFAGSGVGKSTLLGMICNGASADIIVLALIGERGREVNEFLALLPQSTLSKCVLVVTTSDRPALERMKAAFTATTIAEYFRDQGKNVLLMMDSVTRYARAARDVGLASGEPDVRGGFPPSVFSSLPKLLERAGPAPKGSITAIYTVLLESDNVNDPIGDEVRSILDGHIVLTRELAEENHFPAIDIGLSASRVMHNVVTSEHLRAAAECKKLIATYKNVELLIRIGEYTMGQDPEADKAIKNRKLIQNFIQQSTKDISSYEKTIESLFKVVA
notes: also called T3SS ATPase; chains NA to NF; source: E. coli BL21 (λDE3), purified (HisTrap HP, thrombin cleavage, second HisTrap HP, desalting)

Key:
[1] = target: T1, EscN-EscO complex (EscN^29–446 with EscO^1–125) (Escherichia coli, UniProt B7UMA6); assay: cryo-EM structure, […] Å; type: binding; parameters: EscN residues 29-446 plus full-length EscO (125 residues); N-terminal 6His tags cleaved with thrombin (tag residue 0 left on EscO); E. coli BL21(DE3); 6:1 complex; with Type III secretion system central stalk protein EscO; conditions: bound as transition state analogue Mg2+ADP-AlF3; pH 7.5; catalytic inter-subunit sites (four of six)
[2] = target: T1, EscN-EscO complex (EscN^29–446 with EscO^1–125); conditions: 3 mM ATP, 500 nM EscN, EscO 1:1 molar, 37 °C; pre-incubated with Mg2+ADP-AlF3, diluted out before assay
[3] = target: EscN^29–446 (EPEC type III secretion system ATPase EscN, residues 29–446) (enteropathogenic Escherichia coli (EPEC) O127:H6 E2348/69) (UniProt B7UMA6)
[4] = target: B2; assay: cryo-EM structure; conditions: both partners purified
cryo-EM structure = target: the molecule itself; assay: cryo-EM structure

## Nc1ncnc2c1ncn2[C@@H]1O[C@H](COP(=O)(O)OP(=O)(O)O)[C@@H](O)[C@H]1O [ADP]
[1]
  cryo-EM structure, 3.29 Å: Sample density of the class two catalytic site ligands ADP, AlF3 (grey and cyan)

## Nc1ncnc2c1ncn2[C@@H]1O[C@H](COP(=O)(O)OP(=O)(O)OP(=O)(O)O)[C@@H](O)[C@H]1O [ATP]
[2]
  EnzChek phosphate release ATPase assay: found to further enhance EscN oligomerization and ATPase activity

## EscO^1–125 Lys110Glu/Lys114Glu (natural protein)
[3]
  decrease in catalytic rate of EscN ATPase (EnzChek) with the EscO mutant against wild-type EscO: 50%

B1: EscO^1–125 (full-length EPEC central stalk protein EscO) (natural protein)
chain: MLDRILSIRKSRANRLRESMAKINSQIKEVDGKLDDCEQAIKESIASKQAYCASLVNLDKVSLYKYQIKNNAFDEQKQRLYEKKSSLSKEKRSLLDSQKRTKEDLQHVNKSIEKLSFAIKEHYFD
notes: source: E. coli BL21 (λDE3), purified (HisTrap HP, thrombin cleavage, second HisTrap HP, desalting)
[4]
  stoichiometry N: 1 EscO per EscN hexamer

## B2
cryo-EM structure
  stoichiometry N: 6
